The values that follow come from patent US20080267953A1 (Kyowa Kirin, published 2008).

In assay [1] the target is T1, polypeptide encoded by the human PERP gene, endogenously expressed on human cancer cell lines (PC9 / PC-9, … (human, UniProt Q96FX8 1-193)).
T1 construct: Four-transmembrane protein of 193 amino acids; also called hPERP; THW
As to the kind of experiment: flow cytometry on PC9 cells expressing PERP. For orientation: Flow cytometry measures light scatter and fluorescence of single cells or particles in a stream.

For assay [2], the target named is T2, human PERP with C-terminal myc-His tag expressed on CHO/DG44 cells from plasmid pcPERPmH (human, UniProt Q96FX8 1-193).
T2 construct: The gene was cloned from plasmid HEMBA 1006335 (GenBank AK 074585); also called PERP/CHO cell; CHO/hPERP
As to the kind of experiment: FMAT fluorescent cell staining, hybridoma culture supernatant, PERP/CHO against CHO/DG44 cells. As for the experimental part:
With regard to the cells for the assay, PERP/CHO cells and CHO/DG44 cells produced in (1) of Reference Example 1 were used. The cells which were cultured on an Iscove's Modified Dulbecco's medium containing 10% fetal bovine serum (manufactured by Invitrogen) for 2 to 3 days and peeled off with a Tripsin-EDTA solution (manufactured by Invitrogen) were suspended on the same medium, seeded onto a black 96-well plates for FMAT at 7×10³ cells/100 μL medium/well and cultured overnight. Mouse anti-serum to be immunized or cultured supernatant of hybridoma cells was dispensed into the plate at 5 μL/well as a primary antibody, and ALEXA 647-labeled anti-mouse immunoglobulin G (H+ L) (manufactured by Molecular Probe) was dispensed at 50 μL/well as a secondary antibody, and the plate was allowed to stand for 4 hours under shading the light. Wavelength of 650 to 685 nm excited by laser beam of 633 nm He/Ne was measured by an FMAT 8100 HTS system (manufactured by Applied Biosystem).

Assay [3] has as its target T1, polypeptide encoded by the human PERP …. The experiment in a line: flow cytometry on Colo 205 cells.
Assay [4] shares this target. As to the kind of experiment: flow cytometry on PC-9 cells. As for the experimental part: (§1) Binding activity of an anti-PERP humanized antibody having no consensus sequence of an N-linked sugar chain purified in (5) of Example 3 to CHO/PERP (KC1359) expressing a polypeptide encoded by the PERP gene, or PC9 cells used in (1) of Example 1 was measured using a fluorescent antibody technique as described below.
CHO/PERP or PC9 cells (2 to 3×10⁵ per well) were dispensed in a 96-well U-shaped plate, a modified antibody wherein the anti-PERP humanized antibody having no consensus sequence of an N-linked sugar chain was diluted in eight stages in a 2-fold dilution starting from 10 μg/ml using a buffer for FCM (1% BSA-PBS, 0.02% EDTA and 0.05% NaN₃) was dispensed in an amount of 100 μL/well or the modified antibody diluted in eight stages in a 5-fold dilution starting from 10 μg/ml and a reaction was carried out on ice for 30 minutes. After washing with a buffer for FCM once, a solution in which a PE-labeled anti-human IgG (H+ L) antibody (manufactured by Beckmann-Coulter) diluted 50-fold with a buffer for FCM was added thereto in an amount of 100 μL/well. After the mixture was allowed to react for 30 minutes on ice protecting from the light, it was washed with a buffer for FCM twice and fluorescence intensity was measured using a flow cytometer. […]

Assay [5] has as its target T2, human PERP with C-terminal myc-His tag …. The experiment in a line: flow cytometry on CHO/PERP (KC1359). As for the experimental part: as §1
CHO/PERP or PC9 cells (2 to 3×10⁵ per well) were dispensed in a 96-well U-shaped plate, a modified antibody wherein the anti-PERP humanized antibody having no consensus sequence of an N-linked sugar chain was diluted in eight stages in a 2-fold dilution starting from 10 μg/ml using a buffer for FCM (1% BSA-PBS, 0.02% EDTA and 0.05% NaN₃) was dispensed in an amount of 100 μL/well or the modified antibody diluted in eight stages in a 5-fold dilution starting from 10 μg/ml and a reaction was carried out on ice for 30 minutes. After washing with a buffer for FCM once, a solution in which a PE-labeled anti-human IgG (H+ L) antibody (manufactured by Beckmann-Coulter) diluted 50-fold with a buffer for FCM was added thereto in an amount of 100 μL/well. After the mixture was allowed to react for 30 minutes on ice protecting from the light, it was washed with a buffer for FCM twice and fluorescence intensity was measured using a flow cytometer. As a positive control, the anti-PERP human chimeric antibody KM3481 described in Reference Example 2 or the anti-PERP human chimeric antibody KM3821 (KM3821) having no consensus sequence of an N-linked sugar chain produced in Example 1 was used.

Positions count from the first letter of the chain named.

B1: anti-PERP CDR-modified antibody ver.1 (antibody, V domains shown)
VH: DVQLQESGPGLVKPSQSLSLTCTVTGFSITTEYAWNWIRQFPGNRLEWMGYIGYTGRTSYSPSLKSRISITRDTSKNQFFLQLNSVTTEDTATYYCTRMDYWGQGTSVTVSS
VL: QIVLIQSPVIMSASPGEKVTITCSASSSVSYMHWFQQKPGTSPKLWIYSTSNLASGVPARFSGSGSGTSYSLTISRMEAEDAATYYCQQRSSYPPTFGAGTKLELK
notes: Human chimeric antibody of IgG class; also called pKANTEX3411 CDR v1
Take B1: in assay [1], the binding result is listed as “binds”.

B2: anti-PERP mouse monoclonal antibody KM3411 (hybridoma FERM BP-8643) (antibody, V domains shown)
VH: B1 VH with S59N
VL: B1 VL
notes: Mouse IgG1; also called anti-PERP mouse antibody KM3411
As to B2, the binding result in assay [2] and in assay [3] was “binds” throughout.

B3: anti-PERP CDR-modified antibody ver.3 (antibody, V domains shown)
VH: B1 VH with S59Y
VL: B1 VL
notes: Human chimeric antibody of IgG class; also called pKANTEX3411 CDR v3
Regarding B3, the binding result in assay [1] is reported as “binds”.

B4: anti-PERP CDR-modified antibody ver.5 (antibody, V domains shown)
VH: B1 VH with S61A
VL: B1 VL
notes: Human chimeric antibody of IgG class; also called pKANTEX3411 CDR v5
On to B4, for which the binding result in assay [1] is recorded as “binds”.

B5: anti-PERP CDR-modified antibody ver.2 (antibody, V domains shown)
VH: B1 VH with S59G
VL: B1 VL
notes: Human chimeric antibody of IgG class; also called pKANTEX3411 CDR v2
Consider B5, for which the binding result in assay [1] was “binds”.

B6: anti-PERP CDR-modified antibody ver.6 (antibody, V domains shown)
VH: B1 VH with S59G, S61A
VL: B1 VL
notes: Human chimeric antibody of IgG class; also called pKANTEX3411 CDR v6
For the molecule B6, the binding result in assay [1] is on record as “binds”.

B7: anti-PERP humanized antibody HV4LV4 (antibody, V domains shown)
VH: QVQLQESGPGLVKPSQTLSLTCTVSGFSISTEYAWNWIRQFPGKGLEWIGYIGYTGRTNYAPSLKSRITISRDTSKNQFSLQLSSVTAEDTATYYCTRMDYWGQGTLVTVSS
VL: DIQMTQSPSSLSASVGDRVTITCSASSSVSYMHWFQQKPGKAPKLWIYSTSNLASGVPSRFSGSGSGTDYTLTISSMQPEDFATYYCQQRSSYPPTFGQGTKVEIK
As to B7, the binding result in assay [4] and in assay [5] was “binds” in each case.

B8: anti-PERP humanized antibody HV4LV3 (antibody, V domains shown)
VH: B7 VH
VL: B7 VL with F35Y
For the molecule B8, in assay [5], the binding result is on record as “binds”.

B9: anti-PERP humanized antibody HV8LV0 (antibody, V domains shown)
VH: B7 VH with S30T, K44N, G45R, I49M
VL: B7 VL with F35Y, W46L, Y70F, M77L
Consider B9, for which, in assay [5], the “binding activity relative to KM3821” value is ~0.2 fraction of the binding activity of KM3821.

B10: anti-PERP humanized antibody HV8LV7 (antibody, V domains shown)
VH: B7 VH with S30T, K44N, G45R, I49M
VL: B7 VL with Q3V, T5I, A42S
On to B10, for which, in assay [5], the binding result is “binds”.

B11: anti-PERP humanized antibody HV4LV7 (antibody, V domains shown)
VH: B7 VH
VL: B7 VL with Q3V, T5I, A42S
With B11, the binding result in assay [5] is on record as “binds”.
